Measured values reported in US7119182 (University of California, dated 2006).
Square brackets hold non-standard residues; d marks the D form. Ends that are not written are not given here. * marks the point of attachment. SMeMpr = S-methyl-3-mercaptopropionic acid, CSCCC(=O)*; 2‑Mba = 2-mercaptobenzoic acid, O=C(c1ccccc1S)*; Cha = N[C@@H](CC1CCCCC1)C(=O)O; Mpa = O=C(O)CCS

B1: (2-Mba)-F(Cha)(Cha)RKPNDK-NH2 (peptide)
peptide: {2‑Mba}-F[Cha][Cha]RKPNDK-NH2
SMILES: N=C(N)NCCC[C@H](NC(=O)[C@H](CC1CCCCC1)NC(=O)[C@H](CC1CCCCC1)NC(=O)[C@H](Cc1ccccc1)NC(=O)c1ccccc1S)C(=O)N[C@@H](CCCCN)C(=O)N1CCC[C@H]1C(=O)N[C@@H](CC(N)=O)C(=O)N[C@@H](CC(=O)O)C(=O)N[C@@H](CCCCN)C(N)=O
B2: (SMeMpr)-F(Cha)(Cha)RKPNDK-NH2 (peptide)
peptide: SMeMpr-F[Cha][Cha]RKPNDK-NH2
SMILES: CSCCC(=O)N[C@@H](Cc1ccccc1)C(=O)N[C@@H](CC1CCCCC1)C(=O)N[C@@H](CC1CCCCC1)C(=O)N[C@@H](CCCNC(=N)N)C(=O)N[C@@H](CCCCN)C(=O)N1CCC[C@H]1C(=O)N[C@@H](CC(N)=O)C(=O)N[C@@H](CC(=O)O)C(=O)N[C@@H](CCCCN)C(N)=O
B3: Mpr-F(Cha) (Cha)RKPNDA-NH2 (peptide)
peptide: [Mpa]F[Cha][Cha]RKPNDA-NH2
SMILES: C[C@H](NC(=O)[C@H](CC(=O)O)NC(=O)[C@H](CC(N)=O)NC(=O)[C@@H]1CCCN1C(=O)[C@H](CCCCN)NC(=O)[C@H](CCCNC(=N)N)NC(=O)[C@H](CC1CCCCC1)NC(=O)[C@H](CC1CCCCC1)NC(=O)[C@H](Cc1ccccc1)NC(=O)CCS)C(N)=O
B4: Mpr-FLLRNPNDKYE-NH2 (peptide)
peptide: [Mpa]FLLRNPNDKYE-NH2
SMILES: CC(C)C[C@H](NC(=O)[C@H](Cc1ccccc1)NC(=O)CCS)C(=O)N[C@@H](CC(C)C)C(=O)N[C@@H](CCCNC(=N)N)C(=O)N[C@@H](CC(N)=O)C(=O)N1CCC[C@H]1C(=O)N[C@@H](CC(N)=O)C(=O)N[C@@H](CC(=O)O)C(=O)N[C@@H](CCCCN)C(=O)N[C@@H](Cc1ccc(O)cc1)C(=O)N[C@@H](CCC(=O)O)C(N)=O

Legend:
Test in all cases: cell-based or functional assay
human thrombin receptor [1] = molecular target: T1, human thrombin receptor (human, UniProt P25116 42-425)
T1 chain: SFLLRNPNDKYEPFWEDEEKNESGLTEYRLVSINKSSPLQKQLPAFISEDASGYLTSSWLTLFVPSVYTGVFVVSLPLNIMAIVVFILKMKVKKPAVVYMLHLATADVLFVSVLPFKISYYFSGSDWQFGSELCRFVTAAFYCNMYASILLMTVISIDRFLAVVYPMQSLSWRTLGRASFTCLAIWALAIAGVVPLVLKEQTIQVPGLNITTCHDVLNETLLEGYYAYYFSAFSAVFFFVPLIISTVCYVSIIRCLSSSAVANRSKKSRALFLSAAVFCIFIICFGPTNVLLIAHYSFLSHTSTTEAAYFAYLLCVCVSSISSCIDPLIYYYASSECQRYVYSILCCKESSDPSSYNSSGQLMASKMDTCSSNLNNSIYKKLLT

thrombin = thrombin (UniProt P00734 364-622; P00734 328-363)
human thrombin receptor [2] = molecular target: T1, human thrombin receptor
[3] = molecular target: T2, mutant thrombin receptor with the amino acid substitution R41A (human, UniProt P25116 22-425, limits assumed)
T2 chain: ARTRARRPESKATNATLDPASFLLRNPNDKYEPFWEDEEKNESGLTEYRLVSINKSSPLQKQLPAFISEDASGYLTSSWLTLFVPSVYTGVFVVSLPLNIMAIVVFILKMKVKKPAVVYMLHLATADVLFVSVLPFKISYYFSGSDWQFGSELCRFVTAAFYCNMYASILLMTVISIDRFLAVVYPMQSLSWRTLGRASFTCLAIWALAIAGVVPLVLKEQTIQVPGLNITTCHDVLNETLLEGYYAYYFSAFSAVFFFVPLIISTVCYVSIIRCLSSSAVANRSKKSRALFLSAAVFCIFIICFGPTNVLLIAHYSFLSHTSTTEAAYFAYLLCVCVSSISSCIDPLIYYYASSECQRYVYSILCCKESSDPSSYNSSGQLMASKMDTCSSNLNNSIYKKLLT

| Binder | IC50 (50% inhibition of thrombin-induced platelet activation or aggregation) (human thrombin receptor [1]) | other results |
| --- | --- | --- |
| Pivaloyl-FLLR-NH2 [Pivaloyl-FLLR-NH2] | 1000 µM |  |
| LDPRPFLL |  | IC50, inhibition of thrombin-induced platelet ATP secretion (peptide preincubated with thrombin) (thrombin): ~200 µM |
| {Cam‑Mpr}-FLLR-NH2 [[Cam-Mpr]-FLLR-NH2] | 1000 µM |  |
| [Mpa]FLLRNPNDK [Mpr-FLLRNPNDK] | 80 µM |  |
| LDPRPFLLRNPNDKYEPFWEDEEKNES |  | IC50, inhibition of thrombin-induced platelet ATP secretion (peptide preincubated with thrombin) (thrombin): ~0.5 µM |
| B1 | 50 µM |  |
| B2 | 10 µM |  |
| B3 | 50 µM |  |
| SFLLRNPNDKYEPF ["new amino-terminal" peptide SFLLRNPNDKYEPF] |  | Fold increase in 45Ca (release by oocytes expressing receptor cRNA); “SFLL” peptide 40 µM (human thrombin receptor [2]): 32 fold; Fold increase in 45Ca (release by oocytes expressing receptor cRNA); “SFLL” peptide 200 µM (human thrombin receptor [2]): 42 fold; Fold increase in 45Ca (release by oocytes expressing receptor cRNA); “SFLL” peptide 200 µM [3]: 53 fold |
| B4 | 108 µM |  |
